System: pathway specific substrates
Assay: Enzyme functionality of pathway enzyme homologs and fusion constructs in lysed E. coli cell extracts, product by HPLC
Type: biochemical, E. coli BL21
Conditions: recombinant E. coli BL21 clone, lysed cell extract
Description: As per one of the possible implementations of the present disclosure, two proteins—cinnamate-4-hydroxylate (C4H) and 4-coumaroyl CoA-ligase (4CL) were expressed as one fusion protein. Also, other two proteins which were expressed as one fusion protein were hydroxycinnamoyl-CoA quinate hydroxycinnamoyltransferase (HCT) and p-coumaroyl quinate 3′-hydroxylase (HCTC3H). The fusion gene and the corresponding fusion protein was prepared using the following method. […] The enzyme fusion constructs were made for the selected genes (Table 5). Pathway genes and the fusion constructs were individually cloned in E. coli expression vector pET28+ under T7 promoter and transformed in E. coli BL21 cells. Recombinant bacterial cells were induced with IPTG and enzyme functionality was tested with pathway specific substrates (Table 5) using lysed E. coli cell extracts. HPLC analysis was carried out to quantify the product formation and in turn shortlisting of efficient enzymes for functional pathway assembly towards Etoposide in E. coli.
The E. coli transformants were grown overnight at 37° C. in 1 ml of M9 minimal media containing ampicillin (100 mg/1), in 96-well format. The next day, 150 μl of each culture was inoculated into 3 ml M9 minimal media containing ampicillin (100 mg/1), IPTG 0.1 mM in 24-well format, and incubated at 30° C. and 200 rpm for ˜20 hours. The following day, cells were spun down and pellets were resuspended in 100 μl of lysis buffer containing 10 mM Tris-HCl pH 8, 5 mM MgCl2, 1 mM CaCl2) and complete mini protease inhibitor EDTA-free (3 tablets/100 ml) (Hoffmann-La Roche, Basel, Switzerland) and frozen at −80° C. for at least 15 minutes to promote cell lysis. Pellets were thawed at room temperature and 50 μl of DNase mix (1 μl of 1.4 mg/ml DNase in H2O (˜80000 u/ml), 1.2 μl of MgCl2 500 mM and 47.8 μl of 4×PBS buffer solution) was added to each well. Plates were shaken at 500 rpm for 5 min at room temperature to allow degradation of genomic DNA. Plates were spun down at 4000 rpm for 30 min at 4° C. and six μl of the lysates were used in in vitro using appropriate substrates for enzymes as per Table 6. In each case, the resulting compounds were measured by HPLC. Results were analysed in comparison with the lysates expressing the corresponding controls (the empty plasmid). […]

[1] = substrate tested: Desmethylepipodophyllotoxin

B1: CYP82D (SEQ ID NO: 40) Panax ginseng (protein)
chain: METFLAQLYSTTTIAALFVLLVLYYFSPWTRINKKNVAPEAGGGWPIIGHLHLLGGSKLPHLVFGSMADKYGPIFTVRLGVQRSLVVSSWEMVKDIFTTNDVIVSGRPKFLAAKHLSYNYAMFGFSPYGSFWLELRKITSLQLLSNRRLELLKHVRVSEMEISMRQLYKLWSEKKNGSGRVLMDMKKWFGELNLNVTFRMVAGKRYFGGGAASNDEEARRCRRVVREFFRLLGVVVVADSLPFLRWLDLGGYERAMKETAREMDSIVSVWLEEHRIKSDSSGDDANMEQDFMDVMLSAVKNVDLCGFDAHTVIKATCMVIISSGTDTTTVELTWALCLLLNNRHVLKKAQEELDNVVGKQRRVKESDLNNLIYLQAIVKETLRLYPAGQLGGQREFSDDCTVGGYHVPKRTRLVVNLWKLHRDPRIWSDPTEFRPERFLERHKEIDVKGQHFELIPFGAGRRVCPGITFGLQMFHLVLASLLHGFDISTPSDAPVDMAEGAGLTNAKITPLEILIAPRLSPSLYE
modifications: Panax ginseng
Question: With B1 as the molecule, how does the “Enzyme activity in terms of product formation (in %)” value (“Enzyme activity in terms … (in %)” for short) (substrate tested: Deoxypodophyllotoxin) read?
Answer: The value was 93%.

B2: Glycosyltransferase (UGT) (SEQ ID NO: 42) Mates domestica (protein, listed as Malus domestica)
chain: MKKVELVFIPSPGAGHHLPTLQFVKRLIDRNDRISITILAIQSYFPTTLSSYTKSIAASEPRIRFIDVPQPQDRPPQEMYKSRAQIFSLYIESHVPSVKKIITNLVSSSANSSDSIRVAALVVDLFCVSMIDVAKELNIPSYLFLTSNAGYLAFMLHLPILHEKNQIAVEESDPDWSIPGIVHPVPPRVLPAALTDGRLSAYIKLASRFRETRGIIVNTFVELETHAITLFSNDDRVPPVYPVGPVIDLDDGQEHSNLDQAQRDKIIKWLDDQPQKSVVFLCFGSMGSFGAEQVKEIAVGLEQSGQRFLWSLRMPSPKGIVPSDCSNLEEVLPDGFLERTNGKKGLICGWAPQVEILAHSATGGFLSHCGWNSILESLWHGVPIATWPMYAEQQLNAFRMVRELGMALEMRLDYKAGSADVVGADEIEKAVVGVMEKDSEVRKKVEEMGKMARKAVKDGGSSFASVGRFIEDVIGQN
Question: Which “Enzyme activity in terms … (in %)” value [1] does the source give for B2 here?
Answer: Its value is 54%.

B3: Glycosyltransferase (UGT) (SEQ ID NO: 44) Lycium barbarum (protein)
chain: MGHLVSTVEMAKQLVDREDQLSITVLIMTLPTETKIPSYTKSLSSNYTSRIRLLELTQPETSVNMGSATHPMKFMSEFITSYKGRVKDAVADMFSSLSSVKLAGFVIDMFCTAMIDVANDFGVPSYLFYTSGAAMLGLQFHFQSLISQNVLSYLDSESEVLIPTYINPVPVKFLPGLILDNDEYSIMFLDLAGRFKETKGIMVNTFVEVESHALKALSDDEKIPPIYPVGPILNLGGGNDGHGEEYDSIMKWLDGQPNSSVVFLCFGSMGSFEEDQVKEVANALESSGYQFLWSLRQPPPKDKLQFPSEFENLEEVLPEGFLQRTKGRGKMIGWAPQVAILSHPSVGGFVSHCGWNSTLESVRSGVPMATWPMYAEQQSNAFQLVKDLEMAVEIKMDYRKDFMTINQPVLVKAEEIGNGIRQLMDLVNKIRAKVRKMKEKSEAAIMEGGSSYVALGNFVETVMKS
modifications: Depcits the amino acid sequence of Glycosyltransferase (UGT of Lycium barbarum)
Question: For B3, which “Enzyme activity in terms … (in %)” value [1] is on record?
Answer: The value was 67%.

B4: Glycosyltransferase (UGT) (SEQ ID NO: 46) Cicer arietinum (protein, listed as Cicer arietinum)
chain: MKKIEVVFIPSPGVGHLISTLEFANLLINRNNRLNITVLVINFPKTVEKQTNYSLTESENLHVINLPQTTTHVPSTSDVGNSISALVETQKSNVKQAVSNLTGTLAAFVVDMFCTTMIDVANELGVPSLVFFTSGVAFLGLMLHLHTIWEQQDTELLLQQDELDIPSFANPVATNTLPTLVLRKEWESSFIKYGNGLKKASGIIVNSFHELEPHAVRSFLEDPTLRDLPIYPVGPILNPKSNVDSDDVIKWLDDQPPSSVVFLCFGSMGTFDEEQVREIALAIERSGVRFLWSLRKPQPQGTMVPPSDYTLSQMLEVLPEGFLDRTANIGRVIGWAPQVQVLAHQATGGFVSHCGWNSTLESIYYGVPIATWPLFAEQQTNAFELVRELKIAVEIALDYRLEFDIGRNYLLDADKIERGIRGVLDKDGEVRKKVKEMSQKSRNVLLEGGSSYTYLGQLIDYITNQV
Question: How did the “Enzyme activity in terms … (in %)” value [1] turn out when B4 was run?
Answer: The value was 97%.

B5: Glycosyltransferase (UGT) (SEQ ID NO: 48) Barbarea vulgaris (protein, listed as Barbarea vulgaris)
chain: MKSELVFIPYPGIGHLRPTVEVAKLLVDREPRLSISVFILPFISGDEVGASDYISALSAASNDRLRYKVIFTGDQETAEPTKLTLHIENQVPKVRTAVAKLIDEYSKLLDSPKIVGFVLDMFCTSMIDVANEFELPSYMFFTSSAGILAVSFHVQVLYDEKKCNFSETMFEDSEAELILPSLTRPYPVKSLPYALFRTEMLIMHVNLARRFRELKGILVNTVDELEPHALKFLLSGITPPAYPVGPLLHLESNQDDESEDEKRSEIIMWLDEQPASSVVFLCFGSMGGFSEEQTREIAIALERSGHRFLWSLRRESPNIDKELPGEFTNLEEVLPEGFFDRTKGIGKVIGWAPQVAVLENPAIGGFVTHGGWNSVLESLWFGVPTAMWPLYAEQKFNAFVMVEELGLAVEIKKYWRGDLLLGRSAMEIVTADEIERGITCLMQQDSDVRKRVKEMKGKCHVALMDGGSSTLALDKFVEDVTKNI
Question: For B5, which “Enzyme activity in terms … (in %)” value [1] is on record?
Answer: The value was 43%.

B6: 2-Deoxy-d-ribose-5-phosphate aldolase (DERA) (SEQ ID NO: 50) Desulfatibacillum aliphaticivorans (protein)
chain: MTGPKICVVGACNIDLISYVERLPVLGETLHGKKFSMGFGGKGANQAVMAAKLGGEVAMVGKLGRDVFGENTLANFKKLGVNVSHVHFTEEAFSGVAPIAVDDNGANSIIIVTGASDLLSAEEIRAAENAIAKSKVLVCQLEIPMEQNLEALRIARKNNVPTIFNPAPARPGLPDELYQLSDIFCPNESETEILTGMPVETMEQAEQAAKALLERGPKTVILTLGERGCLLVDANGARHIPTRKVEAIDTTGAGDCFVGSLAFFLAAGKSLEDAINRANKIAAVSVCGQGTQSSFPGASELDPEILSDIQPAESQAPAMSAKDLAQYIDHTLLKPEAPLSAFDKICEEAILHQFRSVCVNSCKISYIAKKLKGTGVDACAVIGFPLGAMSTAAKAFEAKQAVMDGAAELDMVINVGALKSGDFDAVFDDIKAVRDAAPLPIILKVIIETCLLTDEEKARACRIAKAADADFVKTSTGFSTGGATLEDIALMRDTVGPYMGVKASGGIKDAKTAIAMIEAGATRIGAGAGVEIVSGLQSDADGSY
modifications: Depicts the amino acid sequence of 2-Deoxy-d- ribose-5-phosphate aldolase (DERA) of Desulfatibacillum aliphaticivorans
Question: Which “Enzyme activity in terms … (in %)” value (substrate tested: Desmethylepipodophyllotoxin glucopyranoside) does the source give for B6 here?
Answer: The value was 83%.

B7: Cinnamte 4 hydroxylase 4 coumarate coenzyme ligase fusion (C4H4CL) (SEQ ID NO: 12) Azospirillum sp. (protein)
chain: MDLLLLEKTLLALFIAATIAITISKLRGKRFKLPPGPIPVPVFGNWLQVGDDLNHRNLTDLAKRFGDIFLLRMGQRNLVVVSSPELAKEVLHTQGVEFGSRTRNVVFDIFTGKGQDMVFTVYGTLAEMRRIMTVPFFTNKVVQQYRFGWEFEAQSVVDDVKKNPEACSSGIVLRRRLQLMMYNIMYRIMFDRRFESEEDPLFVKLKALNGERSRLAQSFEYNYGDFIPILRPFLKGYLKLCKEVKDRRLQLFKDYFVDERKKLGSTKSTTNEGLKCAIDHILDAQQKGEINDDNVLYIVENINVAAIETTLWSIEWGIAELVNHQKIQNKVREEIDRVLGPGHQVTEPDLQKLPYLQAVIKETLRLRMAIPLLVPHMNLHDAKLSGFDIPAESKILVNAWWLANNPAQWKKPEEFRPERFLEEESHVEANGNDFRYLPFGVGRRSCPGIILALPILGITLGRLVQNFELLPPPGQSKIDTAEKGGQFSLHILKHSTIVCKPRSFNGGGGSGGGGSGGGGSMTIQRWWRNRESLNRVLCDLLAGEFARLRPGGSPPAHPHRWPETLPLGPDGVGADSLDLLQLAAALNEALHLHRSGIEDYLLMHRTVGDWLDVCEAALGRFDGALSFRTSGSTGEGKRCEHPLAALEEEADALAALLSGGAEAPRRVVSVVPAHHIYGFLFTVLLPDRLAVPVVDGRGTSPGGLAARLGPGDLVVAHPDWWGALLRSGAALPDGVTGTSSTAPCPPDTARGVRGVGLARLVEVFGSSETAGLGWRESPDAPFRPFPWWRFGDDGRVTRRLADGTVLSATLQDRLSHDEEGFRPSGRLDTVVQVGGVNVSLAGVQAHLAGHPDVEAAAVRLMRPEEGTRLKAFIVPARTAPPREELYRRLTDWIEATLPAPHRPRALAFGPALPVNGMGKPCDWPLATCR
modifications: Depicts the amino acid sequence of the enzyme Cinnamte 4 hydroxylase 4 coumarate coenzyme ligase fusion (C4H4CL)
Question: B7 was tested. Which “Enzyme activity in terms … (in %)” value (substrate tested: Cinnamate) did it give?
Answer: Its value is 97%.
